Experimental data reported in patent publication US20050209548A1, “Electroporation-mediated intravascular delivery” (priority 2004, published 2005).

Columns and labels:
[1] = rabbit, in vivo
Description: This catheter was used in the following experiment. Three rabbits weighing 4 Kg were anesthetized with xylazine (0.1 ml/kg) and ketamine (0.5 ml/1 g i.m.). General anesthesia was maintained with α-chloralose (30 mg/Kg. i.v.). […] A femoral artery in the leg on one side of the rabbit was exposed. A 5F sheath was introduced and the catheter was pushed under fluoroscopic guidance to the right or left carotid artery. […] Radiocontrast fluid was infused (panel b) allowing confirmation of the catheter position, the patient artery, the balloon and the built-in radiopaque marker, as well as presence of the dye in the side branches. After balloon inflation, (panel c) 1 ml of fluoresceinated heparin (concentration 1 mg dissolved in 2 ml: biological activity of heparin as per manufacturer: 167 U) was infused between the occluded segment via the drug port and the artery pulsed immediately with the balloons in the inflated condition. Initially, field parameters tested were ˜60V and four pulses each of ˜600 μs pulse length. […] In a subsequent experiment, voltage and pulse length were changed to 57V and 22 ms, respectively. As before, four pulses were delivered from ECM 600 pulse exponential generator. […] In addition, fluorescence due to collagen and elastin was also present.

[2] = Molecular Probe, Inc.; cited from earlier work
[3] = pig, in vivo; cited from earlier work
[4] = rabbit, in vivo; remark: listed apart in the source
Description: Experiments were performed in 12 New Zealand white rabbits of either sex (2.5-3.4 kg) preanesthetized with xylazine (2 mg.kg^−1) and ketamine (50 mg.kg^−1) intramuscularly and an injection of alphachloralose (30 mg.kg^−1) intraveneously through an ear vein. A supplemental dose of 10 mg.kg^−1 chloralose was given every hour. The anesthetic state was maintained such that the toe-pinching reflex and corneal reflexes were absent.
Animals were placed supine and strapped on the surgical table. The trachea was intubated to allow spontaneous breathing of ambient air. Electrocardiogram (EKG) of the animal was obtained by using Lead II in differential mode. End-tidal CO2 tension was monitored by a CO2 analyzer (Datex, Puritan-Bennett). Body temperature was kept at the 38-38.5 °C range by radiant heating.
A longitudinal incision in the cervical region was made in the rabbit to expose the common carotid arteries on both sides. Approximately 6 cm in length of carotid artery on each side was isolated from the surrounding tissue and vagosympathetic nerve trunk. The caudal end of the carotid artery on one side was transiently occluded with a vascular clip at the junction between the neck and chest. A small incision was then made at the rostral end of the artery (just below transversus vein) to push an electroporator catheter (FIG. 1) through this incision. […]
Lead II EKG Nvas differentially amplified and the output was continuously monitored on an osciloscope (Tektronix) and recorded on a Gould TA-2000 thermal-array recorder for evaluation. […]
Arterial segments were subsequently freeze sectioned (10 micron) transversely. Microscopic slides containing arterial sections were observed under a Zeiss confocal laser (argon-krypton) scan microscope (LSM 410 Invert), (excitation at 495 nm and emission at 515 nm) to obtain video image (magnification 40 times) of fluorescence. Subsequently, control and test samples were compared by analyzing fluorescence intensity by Line Intensity Scan at different depths of the arterial wall using commercially obtained software (Image 1: Universal Imaging Corp.). […]

Substance: fluoresceinated heparin [F-heparin]
- penetration and uptake after autofluorescence correction and subtraction of control artery fluorescence [1]: deep penetration and uptake
- activity [2]: 167 unit/mg

Substance: hirudin
- drug washed out of the vessel [3]: 80%
- level in vessel compared with passive delivery [3]: the level is the same as for the passive delivery

Substance: heparin
- duration of sustained delivery in vessel [4]: at least 12 hours
- location in the vessel wall [4]: mostly present in the media but also in the intima
- washout of local delivery from vessel [4]: completely washes out in two hours
